Read-outs that look alike come from different tables or passages of the source.
T1: RhoB Q63L (human, UniProt P62745)
T1 chain: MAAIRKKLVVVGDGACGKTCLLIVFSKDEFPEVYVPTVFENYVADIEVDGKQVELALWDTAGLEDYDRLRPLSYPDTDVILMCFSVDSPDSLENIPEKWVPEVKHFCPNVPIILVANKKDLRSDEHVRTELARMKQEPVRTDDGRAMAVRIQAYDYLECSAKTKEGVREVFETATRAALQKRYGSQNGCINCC

T2: RhoC Q63L (human, UniProt P08134)
T2 chain: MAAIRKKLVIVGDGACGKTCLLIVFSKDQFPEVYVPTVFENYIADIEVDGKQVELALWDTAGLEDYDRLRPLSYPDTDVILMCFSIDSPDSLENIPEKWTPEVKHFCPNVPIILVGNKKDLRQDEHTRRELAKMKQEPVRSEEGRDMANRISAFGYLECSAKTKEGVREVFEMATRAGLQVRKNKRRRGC

B1: 5SNP48 (antibody, V domains shown)
VH: VQLQASGGGFVQPGGSLRLSCAASGTSWFTEVMGWFRQAPGKEREFVSAISGLHDVGTYYADSVKGRFTISRDNSKNTVYLQMNSLRAEDTATYYCAALDKWYTKAMDARKDYWGQGTQVTVSS
B2: B6 (antibody, V domains shown)
VH: VQLQASGGGFVQPGGSLRLSCAASGYGSTIETMGWFRQAPGKEREFVSAISRAPGPSQYYADSVKGRFTISRDNSKNTVYLQMNSLRAEDTATYYCAPINNRTMQDSMFLWNYWGQGTQVTVSS
B3: 5SNP65 (antibody, V domains shown)
VH: VQLQASGGGFVQPGGSLRLSCAASGATYEGEAMGWFRQAPGKEREFVSAISSYPSVISYYADSVKGRFTISRDNSKNTVYLQMNSLRAEDTATYYCAYWVNHEGTIREIYWGQGTQVTVSS
B4: 4SNP36 (antibody, V domains shown)
VH: VQLQASGGGFVQPGGSLRLSCAASGTSWKDYTMGWFRQAPGKEREFVSAISEGPGAQYYYADSVKGRFTISRDNSKNVYLQMNSLRAEDTATYYCAYSSWQPYVSYWGQGTQVTVSS
B5: H12 (antibody, V domains shown)
VH: VQLQASGGGFVQPGGSLRLSCAASGDGSRIYAMGWFRQAPGKEREFVSAISWEQDWEHYYADSVKGRFTISRDNSKNTVYLQMNSLRAEDTATYYCAAFMTPHRNLTSMYWGQGTQVTVSS

Tests used:
RhoA T19N [1] = target: T3, RhoA T19N (human, UniProt P61586)
T3 sequence (P61586 1-190 T19N): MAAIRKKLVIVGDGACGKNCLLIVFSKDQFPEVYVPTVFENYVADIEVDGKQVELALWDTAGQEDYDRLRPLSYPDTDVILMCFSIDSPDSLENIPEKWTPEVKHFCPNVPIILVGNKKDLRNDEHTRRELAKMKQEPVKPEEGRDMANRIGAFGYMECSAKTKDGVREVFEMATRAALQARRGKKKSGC

RhoB Q63L = target: T1, RhoB Q63L
RhoA Q63L = RhoA Q63L (human, UniProt P61586)
RhoC Q63L = target: T2, RhoC Q63L
[2] = target: RhoA wild type GDP-loaded (human, UniProt P61586); assay: ELISA
RhoA T19N [3] = target: T3, RhoA T19N; assay: ELISA

Row | Binder | binding result (RhoA T19N [1]) | Kd (RhoB Q63L) [pM] | Kd (RhoA Q63L) [pM] | Kd (RhoC Q63L) [pM] | other results
1 | B1 | no binding | – | – | – | –
2 | B2 | – | 710 | – | – | –
3 | B3 | no binding | – | – | – | –
4 | B4 | – | 278 | 296 | 83.1 | –
5 | B5 | – | – | 265 | 47.9 | binding result [2]: no binding; binding result (RhoA T19N [3]): no binding

— US20220213221 (published 2022)
